Measured values: US20230149532A1
Where two headings read alike, the source gives them in different places.

Assays:
[1] = target: ACE-2 receptor on Vero e6 cells (African green monkey (Vero e6 cells))
[2] = target: ACE-2 receptor on Vero e6 cells (African green monkey (Vero e6 cells)); assay: two-color confocal microscopy, co-localization on Vero e6 cells (n=10 analyses)

Substance	particles per field (particles per field) [1]	fold increase over the non-specific H7 control [2]	particles per field (particles per field) [2]
plant-produced recombinant H7 strain influenza HA protein	122	–	–
angiotensin II (from UniProt P01019 25-32) (peptide)	–	2.79 fold	452
